Here are results for 3 molecules from PMC10469627, “Molecular basis of the glycosomal targeting of PEX11 and its mislocalization to mitochondrion in trypanosomes” (Frontiers in Cell and Developmental Biology, 2023).

This assay has as its target T1, GST-HsPEX19 (human, UniProt P40855 1-299).
T1 construct: human PEX19, expressed from pGEX4T1-HsPEX19; also called GST-tagged recombinant human PEX19; recombinant human GST-PEX19; source: E. coli BL21 (DE3), purified (Glutathione Agarose 4B)
T1 sequence (looked up): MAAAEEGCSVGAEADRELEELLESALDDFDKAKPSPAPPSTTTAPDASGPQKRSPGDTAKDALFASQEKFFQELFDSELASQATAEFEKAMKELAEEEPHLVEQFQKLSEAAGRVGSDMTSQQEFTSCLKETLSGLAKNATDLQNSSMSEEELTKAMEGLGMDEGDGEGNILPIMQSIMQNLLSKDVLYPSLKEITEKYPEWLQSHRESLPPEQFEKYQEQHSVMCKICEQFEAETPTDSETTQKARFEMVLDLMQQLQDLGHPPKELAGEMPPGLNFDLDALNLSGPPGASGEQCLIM
Nature of the assay: peptide or protein array; 15-mer peptides (2 aa shift) on a cellulose membrane; probed with 1 µM GST fusion or GST in TBS + 3% BSA + 0.05% Tween-20, 1 h at 4°C; detected with anti-GST antibody and chemiluminescence; at least three consecutive spots counted as a potential site. As to conditions: both partners purified.

B1: TbPEX11 array peptides of BS2 (aa 77-99) (peptide)
peptide: CRAKGKVNMKEVLKFLRVLCNFL
notes: PEX11 of Trypanosoma brucei, residues 77-99 (BS2); on the array this stretch stood as consecutive overlapping 15-mers (2 aa shift), each on its own spot; source: synthetic peptides, synthesized on a cellulose membrane
As for B1, the binding result was “binds”.

B2: TbPEX11 array peptides of BS1 (aa 13-35) (peptide)
peptide: QTDGRDKILKAFSGVFKALGSLD
notes: PEX11 of Trypanosoma brucei, residues 13-35 (BS1); on the array this stretch stood as consecutive overlapping 15-mers (2 aa shift), each on its own spot; source: synthetic peptides, synthesized on a cellulose membrane
With B2, the binding result is listed as “binds”.

B3: TbPEX11 array peptides of BS3 (aa 139-159) (peptide)
peptide: VLDVVALYGALQKRASDPATS
notes: PEX11 of Trypanosoma brucei, residues 139-159 (BS3); on the array this stretch stood as consecutive overlapping 15-mers (2 aa shift), each on its own spot; source: synthetic peptides, synthesized on a cellulose membrane
Consider B3, for which the binding result is “binds”.
